Kd data for five molecules are collected here from US7087405 (dated 2006).

The target in assay [1] is T1, integrin alphavbeta5 (human, UniProt P06756).
T1 chain 1: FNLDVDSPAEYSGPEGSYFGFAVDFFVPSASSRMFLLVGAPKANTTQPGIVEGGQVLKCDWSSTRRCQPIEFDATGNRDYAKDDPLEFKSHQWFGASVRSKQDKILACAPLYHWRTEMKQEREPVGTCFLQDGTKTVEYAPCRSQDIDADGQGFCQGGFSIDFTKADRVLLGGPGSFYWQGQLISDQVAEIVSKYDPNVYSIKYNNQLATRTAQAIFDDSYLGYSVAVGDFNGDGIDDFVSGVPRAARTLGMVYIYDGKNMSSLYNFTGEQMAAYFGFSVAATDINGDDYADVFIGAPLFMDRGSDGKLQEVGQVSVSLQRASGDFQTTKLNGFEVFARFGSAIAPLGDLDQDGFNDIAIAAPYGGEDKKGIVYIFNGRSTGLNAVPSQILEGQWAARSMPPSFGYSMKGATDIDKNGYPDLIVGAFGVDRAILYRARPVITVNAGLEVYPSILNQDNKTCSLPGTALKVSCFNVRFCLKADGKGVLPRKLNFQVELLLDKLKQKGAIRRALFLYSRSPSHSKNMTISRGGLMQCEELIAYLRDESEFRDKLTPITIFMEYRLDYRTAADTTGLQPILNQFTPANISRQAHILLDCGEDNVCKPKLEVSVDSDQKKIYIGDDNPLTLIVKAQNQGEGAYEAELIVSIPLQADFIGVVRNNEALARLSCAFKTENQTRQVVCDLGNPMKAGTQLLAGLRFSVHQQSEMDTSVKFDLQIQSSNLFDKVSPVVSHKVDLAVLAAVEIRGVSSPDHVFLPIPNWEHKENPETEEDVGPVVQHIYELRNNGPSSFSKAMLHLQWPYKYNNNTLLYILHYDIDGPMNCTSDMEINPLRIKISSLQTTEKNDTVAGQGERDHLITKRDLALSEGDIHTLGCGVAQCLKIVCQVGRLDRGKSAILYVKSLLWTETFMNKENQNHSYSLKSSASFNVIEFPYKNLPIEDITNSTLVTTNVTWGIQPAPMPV
T1 chain 2: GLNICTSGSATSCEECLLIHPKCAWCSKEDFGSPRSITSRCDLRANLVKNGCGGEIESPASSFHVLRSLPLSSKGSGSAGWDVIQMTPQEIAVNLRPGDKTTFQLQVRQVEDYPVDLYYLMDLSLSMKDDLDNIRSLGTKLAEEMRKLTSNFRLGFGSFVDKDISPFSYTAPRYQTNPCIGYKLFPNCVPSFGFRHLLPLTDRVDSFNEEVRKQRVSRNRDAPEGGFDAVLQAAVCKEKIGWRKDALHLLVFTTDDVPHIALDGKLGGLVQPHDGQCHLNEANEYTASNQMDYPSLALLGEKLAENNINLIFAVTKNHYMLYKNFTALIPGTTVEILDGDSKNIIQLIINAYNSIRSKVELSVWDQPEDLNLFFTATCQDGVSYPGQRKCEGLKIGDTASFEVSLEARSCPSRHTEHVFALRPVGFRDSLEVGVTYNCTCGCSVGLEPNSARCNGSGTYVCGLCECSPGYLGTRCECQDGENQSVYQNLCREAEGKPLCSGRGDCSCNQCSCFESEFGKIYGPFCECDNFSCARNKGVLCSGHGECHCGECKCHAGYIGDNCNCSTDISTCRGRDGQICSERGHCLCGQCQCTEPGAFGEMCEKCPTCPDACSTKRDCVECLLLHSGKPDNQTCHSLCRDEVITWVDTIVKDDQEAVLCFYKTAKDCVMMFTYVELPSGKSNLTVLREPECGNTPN
As to the kind of experiment: SPR, receptor immobilized, bivalent. (In general: In SPR one partner is held on a chip, and binding of the other changes the refractive index at the surface.)

Assay [2] concerns the target T2, integrin alphavbeta3 (human, UniProt P06756).
T2 chain 1: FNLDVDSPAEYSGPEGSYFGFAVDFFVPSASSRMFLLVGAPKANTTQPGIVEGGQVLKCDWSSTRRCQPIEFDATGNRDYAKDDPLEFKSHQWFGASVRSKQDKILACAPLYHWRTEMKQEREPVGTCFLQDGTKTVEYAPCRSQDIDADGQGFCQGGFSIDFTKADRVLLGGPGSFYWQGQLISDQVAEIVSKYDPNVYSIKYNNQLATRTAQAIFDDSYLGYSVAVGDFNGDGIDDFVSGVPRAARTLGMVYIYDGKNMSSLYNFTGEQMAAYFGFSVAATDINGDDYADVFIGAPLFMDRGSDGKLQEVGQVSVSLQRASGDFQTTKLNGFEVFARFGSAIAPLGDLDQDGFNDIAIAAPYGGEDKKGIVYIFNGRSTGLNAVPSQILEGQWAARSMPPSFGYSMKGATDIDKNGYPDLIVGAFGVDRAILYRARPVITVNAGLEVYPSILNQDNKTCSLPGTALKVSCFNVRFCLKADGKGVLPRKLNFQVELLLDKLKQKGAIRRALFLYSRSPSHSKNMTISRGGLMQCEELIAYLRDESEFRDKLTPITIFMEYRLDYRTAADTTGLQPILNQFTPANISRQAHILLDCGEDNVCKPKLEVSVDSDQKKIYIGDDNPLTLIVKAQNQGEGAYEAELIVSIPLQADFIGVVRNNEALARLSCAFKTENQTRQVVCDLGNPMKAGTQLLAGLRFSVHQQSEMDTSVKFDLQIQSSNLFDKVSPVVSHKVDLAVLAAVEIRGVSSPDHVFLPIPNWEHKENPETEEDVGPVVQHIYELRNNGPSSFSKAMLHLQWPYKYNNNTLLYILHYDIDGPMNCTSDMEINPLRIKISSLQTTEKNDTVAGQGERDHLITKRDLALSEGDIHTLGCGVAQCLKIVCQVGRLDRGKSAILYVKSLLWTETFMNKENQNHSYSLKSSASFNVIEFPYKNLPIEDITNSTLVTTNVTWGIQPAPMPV
T2 chain 2: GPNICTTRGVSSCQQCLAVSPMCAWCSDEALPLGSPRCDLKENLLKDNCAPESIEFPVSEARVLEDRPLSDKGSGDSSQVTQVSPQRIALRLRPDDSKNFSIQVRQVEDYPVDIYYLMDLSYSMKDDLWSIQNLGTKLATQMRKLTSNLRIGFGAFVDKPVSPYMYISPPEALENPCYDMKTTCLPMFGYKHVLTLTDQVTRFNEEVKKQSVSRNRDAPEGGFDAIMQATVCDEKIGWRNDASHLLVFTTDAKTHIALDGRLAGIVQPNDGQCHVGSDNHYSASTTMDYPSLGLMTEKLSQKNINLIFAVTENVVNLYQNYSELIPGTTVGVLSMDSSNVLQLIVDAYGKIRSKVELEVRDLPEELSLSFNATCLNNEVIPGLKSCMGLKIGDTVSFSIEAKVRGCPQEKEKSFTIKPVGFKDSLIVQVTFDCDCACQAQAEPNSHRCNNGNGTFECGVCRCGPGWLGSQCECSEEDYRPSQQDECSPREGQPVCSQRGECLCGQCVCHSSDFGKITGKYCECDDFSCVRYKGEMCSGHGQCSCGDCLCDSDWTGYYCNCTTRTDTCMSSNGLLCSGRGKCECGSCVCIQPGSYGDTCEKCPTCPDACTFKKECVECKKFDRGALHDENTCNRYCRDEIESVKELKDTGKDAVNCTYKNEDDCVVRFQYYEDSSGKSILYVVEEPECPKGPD
The assay can be described thus: SPR, receptor immobilized, bivalent.

Assay [3] addresses T2, integrin alphavbeta3. As to the kind of experiment: SPR, mAb captured on Protein A.

B1: murine B9 (antibody, V domains shown)
VH: QVQLQQSGAELMKPGASVKISCKATGYTFSSYWIEWVKQRPGHGLEWIGEILPRSGNTNYNEKFKGKATFTAETSSNTAYMQLSSLTPEDSAVYYCSSRGVRGSMDYWGQGTSVTVSS
VL: DIQMTQTTSSLSASLGDRVTITCRSSQDISNFLNWYQQKPDGTVKLLIYYTSTLHSGVPSRFSGSGSGTDYSLTISNLEQEDIATYFCQQGNTLPWTFGGGTNLEIKR
B1: the Kd was found to be 0.11 nM in assay [1] and 0.29 nM in assay [2].

B2: B9HL1G1 (antibody)
chain 1: QVQLVQSGAEVKKPGASVKVSCKASGYTFSSYWIEWVKQAPGQGLEWIGEILPRSGNTNYNEKFKGKATFTADTSTSTAYMELSSLRSEDTAVYYCSSRGVRGSMDYWGQGTLVTVSS
chain 2: DIQMTQSPSSLSASVGDRVTITCRSSQDISNFLNWYQQKPGKAPKLLIYYTSTLHSGVPSRFSGSGSGTDYTLTISSLQPEDFATYYCQQGNTASLDVRWRY
Take B2: in assay [3], the Kd stood at 8.2 nM.

B3: B9HL1G4 (antibody)
chain 1: QVQLVQSGAEVKKPGASVKVSCKASGYTFSSYWIEWVKQAPGQGLEWIGEILPRSGNTNYNEKFKGKATFTADTSTSTAYMELSSLRSEDTAVYYCSSRGVRGSMDYWGQGTLVTVSS
chain 2: DIQMTQSPSSLSASVGDRVTITCRSSQDISNFLNWYQQKPGKAPKLLIYYTSTLHSGVPSRFSGSGSGTDYTLTISSLQPEDFATYYCQQGNTASLDVRWRY
Regarding B3, the Kd in assay [3] turned out to be 5.4 nM.

B4: B9HH1G1/HL3K (antibody, V domains shown)
VH: QVQLVQSGAEVKKPGASVKVSCKASGYTFSSYWIEWVKQAPGQGLEWIGEILPRSGNTNYNEKFKGKATFTADTSTSTAYMELSSLRSEDTAVYYCSSRGVRGSMDYWGQGTLVTVSS
VL: DIQMTQSPSSLSASVGDRVTITCRSSQDISNFLNWYQQKPGKAPKLLIYYTSTLHSGVPSRFSGSGSGTDYTLTISSLQPEDFATYYCQQGNTLPWTFGGGTNVE
As to B4, the Kd in assay [3] stood at 6.9 nM.

B5: B9HL2G1 (antibody, V domains shown)
VH: QVQLVQSGAEVKKPGASVKVSCKASGYTFSSYWIEWVKQAPGQGLEWIGEILPRSGNTNYNEKFKGKATFTADTSTSTAYMELSSLRSEDTAVYYCSSRGVRGSMDYWGQGTLVTVSS
VL: DIQMTQSPSSLSASVGDRVTITCRSSQDISNFLNWYQQKPGKAPKLLIYYTSTLHSGVPSRFSGSGSGTDYTFTISSLQPEDIATYYCQQGNTLPWTFGGGT
In assay [3], B5 displayed a Kd of 7.1 nM.
